Assay results from paper PMC10786891, “Massively parallel profiling of RNA-targeting CRISPR-Cas13d”.

T1: EsCas13d, nuclease-dead (Eubacterium siraeum, UniProt B0MS50, R295A;H300A;R849A;H854A)
T1 sequence: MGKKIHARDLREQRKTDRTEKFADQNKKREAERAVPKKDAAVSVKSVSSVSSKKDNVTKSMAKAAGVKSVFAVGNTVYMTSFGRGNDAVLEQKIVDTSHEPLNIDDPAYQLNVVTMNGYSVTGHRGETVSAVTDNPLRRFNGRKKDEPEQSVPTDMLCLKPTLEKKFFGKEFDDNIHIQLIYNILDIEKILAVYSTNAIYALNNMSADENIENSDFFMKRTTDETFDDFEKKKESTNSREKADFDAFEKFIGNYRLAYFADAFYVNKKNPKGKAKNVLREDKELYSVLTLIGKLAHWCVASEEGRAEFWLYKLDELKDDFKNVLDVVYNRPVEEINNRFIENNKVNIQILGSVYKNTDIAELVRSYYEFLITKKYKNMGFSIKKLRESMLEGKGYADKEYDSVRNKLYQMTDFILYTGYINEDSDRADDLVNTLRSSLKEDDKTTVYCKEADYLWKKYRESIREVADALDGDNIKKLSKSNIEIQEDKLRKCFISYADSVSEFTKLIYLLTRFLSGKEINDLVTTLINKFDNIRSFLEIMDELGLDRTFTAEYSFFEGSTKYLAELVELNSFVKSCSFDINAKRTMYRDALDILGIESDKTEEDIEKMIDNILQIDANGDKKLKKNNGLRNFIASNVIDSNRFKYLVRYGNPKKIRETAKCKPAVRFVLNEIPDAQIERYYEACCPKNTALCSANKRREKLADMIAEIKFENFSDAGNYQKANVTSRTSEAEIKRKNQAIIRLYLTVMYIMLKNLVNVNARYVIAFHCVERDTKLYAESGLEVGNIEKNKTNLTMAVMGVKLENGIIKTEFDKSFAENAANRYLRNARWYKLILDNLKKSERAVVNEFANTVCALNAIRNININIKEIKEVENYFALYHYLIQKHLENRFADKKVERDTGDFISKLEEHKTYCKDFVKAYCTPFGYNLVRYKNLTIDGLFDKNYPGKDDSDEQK

B1: target 1 MT 5'PFS CCG 3'PFS UAU (mixed)
RNA 1: CACCCGUGCAAAAAUGCAGGGGUCUAAAACUGAGCGGAUAACCUCUCUAUGG
RNA 2: GGGAAUGGAUCCACAUCUACGAAUUCCCGCCAUAGAGAGGUUAUCCGCUCAUAUAGAUCGGAAGAGCACACGU
B2: target 1 MT 5'PFS GCG 3'PFS CAC (mixed)
RNA 1: CACCCGUGCAAAAAUGCAGGGGUCUAAAACUGAGCGGAUAACCUCUCUAUGG
RNA 2: GGGAAUGGAUCCACAUCUACGAAUUCGCGCCAUAGAGAGGUUAUCCGCUCACACAGAUCGGAAGAGCACACGU
B3: target 1 MT 5'PFS GUC 3'PFS UCU (mixed)
RNA 1: CACCCGUGCAAAAAUGCAGGGGUCUAAAACUGAGCGGAUAACCUCUCUAUGG
RNA 2: GGGAAUGGAUCCACAUCUACGAAUUCGUCCCAUAGAGAGGUUAUCCGCUCAUCUAGAUCGGAAGAGCACACGU
B4: target 1 MT 5'PFS GCC 3'PFS AAC (mixed)
RNA 1: CACCCGUGCAAAAAUGCAGGGGUCUAAAACUGAGCGGAUAACCUCUCUAUGG
RNA 2: GGGAAUGGAUCCACAUCUACGAAUUCGCCCCAUAGAGAGGUUAUCCGCUCAAACAGAUCGGAAGAGCACACGU
B5: target 1 MT 5'PFS ACA 3'PFS CAU (mixed)
RNA 1: CACCCGUGCAAAAAUGCAGGGGUCUAAAACUGAGCGGAUAACCUCUCUAUGG
RNA 2: GGGAAUGGAUCCACAUCUACGAAUUCACACCAUAGAGAGGUUAUCCGCUCACAUAGAUCGGAAGAGCACACGU
B6: target 1 MT 5'PFS CCG 3'PFS UAG (mixed)
RNA 1: CACCCGUGCAAAAAUGCAGGGGUCUAAAACUGAGCGGAUAACCUCUCUAUGG
RNA 2: GGGAAUGGAUCCACAUCUACGAAUUCCCGCCAUAGAGAGGUUAUCCGCUCAUAGAGAUCGGAAGAGCACACGU
B7: target 1 MT 5'PFS CCA 3'PFS ACG (mixed)
RNA 1: CACCCGUGCAAAAAUGCAGGGGUCUAAAACUGAGCGGAUAACCUCUCUAUGG
RNA 2: GGGAAUGGAUCCACAUCUACGAAUUCCCACCAUAGAGAGGUUAUCCGCUCAACGAGAUCGGAAGAGCACACGU
B8: target 1 MT 5'PFS GUC 3'PFS AAG (mixed)
RNA 1: CACCCGUGCAAAAAUGCAGGGGUCUAAAACUGAGCGGAUAACCUCUCUAUGG
RNA 2: GGGAAUGGAUCCACAUCUACGAAUUCGUCCCAUAGAGAGGUUAUCCGCUCAAAGAGAUCGGAAGAGCACACGU
B9: target 1 MT 5'PFS GCC 3'PFS AAG (mixed)
RNA 1: CACCCGUGCAAAAAUGCAGGGGUCUAAAACUGAGCGGAUAACCUCUCUAUGG
RNA 2: GGGAAUGGAUCCACAUCUACGAAUUCGCCCCAUAGAGAGGUUAUCCGCUCAAAGAGAUCGGAAGAGCACACGU
B10: target 1 MT 5'PFS GCC 3'PFS AAA (mixed)
RNA 1: CACCCGUGCAAAAAUGCAGGGGUCUAAAACUGAGCGGAUAACCUCUCUAUGG
RNA 2: GGGAAUGGAUCCACAUCUACGAAUUCGCCCCAUAGAGAGGUUAUCCGCUCAAAAAGAUCGGAAGAGCACACGU
B11: target 1 MT 5'PFS CUA 3'PFS AUG (mixed)
RNA 1: CACCCGUGCAAAAAUGCAGGGGUCUAAAACUGAGCGGAUAACCUCUCUAUGG
RNA 2: GGGAAUGGAUCCACAUCUACGAAUUCCUACCAUAGAGAGGUUAUCCGCUCAAUGAGAUCGGAAGAGCACACGU
B12: target 1 MT 5'PFS GUC 3'PFS AAA (mixed)
RNA 1: CACCCGUGCAAAAAUGCAGGGGUCUAAAACUGAGCGGAUAACCUCUCUAUGG
RNA 2: GGGAAUGGAUCCACAUCUACGAAUUCGUCCCAUAGAGAGGUUAUCCGCUCAAAAAGAUCGGAAGAGCACACGU
B13: target 1 MT 5'PFS CCG 3'PFS UAC (mixed)
RNA 1: CACCCGUGCAAAAAUGCAGGGGUCUAAAACUGAGCGGAUAACCUCUCUAUGG
RNA 2: GGGAAUGGAUCCACAUCUACGAAUUCCCGCCAUAGAGAGGUUAUCCGCUCAUACAGAUCGGAAGAGCACACGU
B14: target 1 MT 5'PFS GCG 3'PFS CAA (mixed)
RNA 1: CACCCGUGCAAAAAUGCAGGGGUCUAAAACUGAGCGGAUAACCUCUCUAUGG
RNA 2: GGGAAUGGAUCCACAUCUACGAAUUCGCGCCAUAGAGAGGUUAUCCGCUCACAAAGAUCGGAAGAGCACACGU
B15: target 1 MT 5'PFS CCG 3'PFS UAA (mixed)
RNA 1: CACCCGUGCAAAAAUGCAGGGGUCUAAAACUGAGCGGAUAACCUCUCUAUGG
RNA 2: GGGAAUGGAUCCACAUCUACGAAUUCCCGCCAUAGAGAGGUUAUCCGCUCAUAAAGAUCGGAAGAGCACACGU
B16: target 1 C2G,G17A (mixed)
RNA 1: CACCCGUGCAAAAAUGCAGGGGUCUAAAACUGAGCGGAUAACCUCUCUAUGG
RNA 2: GGGAAUGGAUCCACAUCUACGAAUUCGUACCAUAAAGAGGUUAUCCGCUGACCGAGAUCGGAAGAGCACACGU
B17: target 1 MT 5'PFS GUC 3'PFS UCC (mixed)
RNA 1: CACCCGUGCAAAAAUGCAGGGGUCUAAAACUGAGCGGAUAACCUCUCUAUGG
RNA 2: GGGAAUGGAUCCACAUCUACGAAUUCGUCCCAUAGAGAGGUUAUCCGCUCAUCCAGAUCGGAAGAGCACACGU
B18: target 1 G15A,C21U (mixed)
RNA 1: CACCCGUGCAAAAAUGCAGGGGUCUAAAACUGAGCGGAUAACCUCUCUAUGG
RNA 2: GGGAAUGGAUCCACAUCUACGAAUUCGUACUAUAGAAAGGUUAUCCGCUCACCGAGAUCGGAAGAGCACACGU
B19: target 1 MT 5'PFS CUA 3'PFS AUU (mixed)
RNA 1: CACCCGUGCAAAAAUGCAGGGGUCUAAAACUGAGCGGAUAACCUCUCUAUGG
RNA 2: GGGAAUGGAUCCACAUCUACGAAUUCCUACCAUAGAGAGGUUAUCCGCUCAAUUAGAUCGGAAGAGCACACGU
B20: target 1 MT 5'PFS CUA 3'PFS AUA (mixed)
RNA 1: CACCCGUGCAAAAAUGCAGGGGUCUAAAACUGAGCGGAUAACCUCUCUAUGG
RNA 2: GGGAAUGGAUCCACAUCUACGAAUUCCUACCAUAGAGAGGUUAUCCGCUCAAUAAGAUCGGAAGAGCACACGU
B21: target 1 MT 5'PFS CUC 3'PFS UAA (mixed)
RNA 1: CACCCGUGCAAAAAUGCAGGGGUCUAAAACUGAGCGGAUAACCUCUCUAUGG
RNA 2: GGGAAUGGAUCCACAUCUACGAAUUCCUCCCAUAGAGAGGUUAUCCGCUCAUAAAGAUCGGAAGAGCACACGU
B22: target 1 MT 5'PFS GUC 3'PFS UCG (mixed)
RNA 1: CACCCGUGCAAAAAUGCAGGGGUCUAAAACUGAGCGGAUAACCUCUCUAUGG
RNA 2: GGGAAUGGAUCCACAUCUACGAAUUCGUCCCAUAGAGAGGUUAUCCGCUCAUCGAGAUCGGAAGAGCACACGU
B23: target 1 MT 5'PFS GCG 3'PFS CAU (mixed)
RNA 1: CACCCGUGCAAAAAUGCAGGGGUCUAAAACUGAGCGGAUAACCUCUCUAUGG
RNA 2: GGGAAUGGAUCCACAUCUACGAAUUCGCGCCAUAGAGAGGUUAUCCGCUCACAUAGAUCGGAAGAGCACACGU
B24: target 1 MT 5'PFS GCG 3'PFS CAG (mixed)
RNA 1: CACCCGUGCAAAAAUGCAGGGGUCUAAAACUGAGCGGAUAACCUCUCUAUGG
RNA 2: GGGAAUGGAUCCACAUCUACGAAUUCGCGCCAUAGAGAGGUUAUCCGCUCACAGAGAUCGGAAGAGCACACGU
B25: target 1 MT 5'PFS GUC 3'PFS UCA (mixed)
RNA 1: CACCCGUGCAAAAAUGCAGGGGUCUAAAACUGAGCGGAUAACCUCUCUAUGG
RNA 2: GGGAAUGGAUCCACAUCUACGAAUUCGUCCCAUAGAGAGGUUAUCCGCUCAUCAAGAUCGGAAGAGCACACGU
B26: target 1 insG 3' of 18,insC 3' of 13 (mixed)
RNA 1: CACCCGUGCAAAAAUGCAGGGGUCUAAAACUGAGCGGAUAACCUCUCUAUGG
RNA 2: GGGAAUGGAUCCACAUCUACGAAUUCGUACCAUAGGAGAGCGUUAUCCGCUCACCGAGAUCGGAAGAGCACACGU
B27: target 1 MT 5'PFS CUA 3'PFS AUC (mixed)
RNA 1: CACCCGUGCAAAAAUGCAGGGGUCUAAAACUGAGCGGAUAACCUCUCUAUGG
RNA 2: GGGAAUGGAUCCACAUCUACGAAUUCCUACCAUAGAGAGGUUAUCCGCUCAAUCAGAUCGGAAGAGCACACGU
B28: target 1 MT 5'PFS CCA 3'PFS ACU (mixed)
RNA 1: CACCCGUGCAAAAAUGCAGGGGUCUAAAACUGAGCGGAUAACCUCUCUAUGG
RNA 2: GGGAAUGGAUCCACAUCUACGAAUUCCCACCAUAGAGAGGUUAUCCGCUCAACUAGAUCGGAAGAGCACACGU

target: T1, EsCas13d, nuclease-dead; assay: crRNA (strand 1, pre-loaded); Mg2+; 40 mM Tris-HCl pH 7.5, 150 mM NaCl, 6 mM MgCl2, 1 mM DTT, 0.1% Tween-20, 0.2 mg/ml BSA; 25 C; 10 min per concentration, then washed; conditions: tags: His6-TwinStrep-SUMO cleaved; N-terminal SNAP kept (SNAP-Surface 488); label: 3' end held by stalled T7 RNA polymerase

B1 was tested. Which Kd did it give?
The Kd was 3.2 ± 1 nM.

Which Kd does the source give for B2 here?
Its Kd is about 42 nM.

With B3 as the binder, how does the Kd read?
Its Kd is 16.1 ± 3.15 nM.

With B4 as the binder, how does the Kd read?
The Kd was 23 ± 7.5 nM.

How did the Kd turn out when B5 was run?
Its Kd is about 20 nM.

With B6 as the binder, how does the Kd read?
The Kd was 3.35 ± 0.595 nM.

Which Kd does the source give for B7 here?
Its Kd is 3.95 ± 1.6 nM.

B8 was tested. Which Kd did it give?
Its Kd is 20.5 ± 5.5 nM.

With B9 as the binder, how does the Kd read?
Its Kd is 28 ± 6.5 nM.

B10 was tested. Which Kd did it give?
Its Kd is 59.5 ± 19 nM.

How did the Kd turn out when B11 was run?
Its Kd is 37 ± 10 nM.

For B12, which Kd is on record?
The Kd was 38 ± 8 nM.

For B13, which Kd is on record?
Its Kd is about 2.85 nM.

Which Kd does the source give for B14 here?
The Kd was 49.5 ± 24.5 nM.

How did the Kd turn out when B15 was run?
Its Kd is 14.2 ± 4.6 nM.

B16 was tested. Which Kd did it give?
Its Kd is 25 ± 1.9 nM.

With B17 as the binder, how does the Kd read?
Its Kd is 11.2 ± 3.1 nM.

How did the Kd turn out when B18 was run?
Its Kd is 6.9 ± 0.4 nM.

How did the Kd turn out when B19 was run?
Its Kd is 6.05 ± 1.65 nM.

B20 was tested. Which Kd did it give?
Its Kd is 7.15 ± 1.5 nM.

How did the Kd turn out when B21 was run?
Its Kd is 59 ± 25 nM.

How did the Kd turn out when B22 was run?
The Kd was 14.4 ± 2.7 nM.

How did the Kd turn out when B23 was run?
The Kd was about 29 nM.

B24 was tested. Which Kd did it give?
The Kd was about 56.5 nM.

B25 was tested. Which Kd did it give?
The Kd was 18.5 ± 5.5 nM.

With B26 as the binder, how does the Kd read?
The Kd was 70 ± 24 nM.

With B27 as the binder, how does the Kd read?
Its Kd is 14.2 ± 3.1 nM.

For B28, which Kd is on record?
The Kd was 14 ± 5.5 nM.
